Assay results reported in US20110046056A1, “APOA-1 PEPTIDE MIMETICS” (priority 2007, published 2011).
*1 amine or outer side, *2 acyl side, *3 side chain or, on linkers, in order; H or OH if unused. Where a SMILES comes first, the peptide text is derived from it. Bridges are numbered along the chain shown (N, C = ends). Where no end group is shown, it is not given here. Side-chain parts run from the residue outwards. [ ]: non-standard residue; d: D form. S6H = (2S)-2-aminooct-7-enoic acid, C=CCCCC[C@H](N[*:1])C(=O)[*:2]; OXA12 = PEG spacer connecting glycine to cholesterol; dGly(6-heptenyl) = C=CCCCCC[C@@H](N)C(=O)O; Ala(5-hexenyl) = C=CCCCCC[C@H](N)C(=O)O; dNle(6-vinyl) = C=CCCCC[C@@H](N)C(=O)O; Gla = N[C@@H](CC(C(=O)O)C(=O)O)C(=O)O; R5H = not defined here; MA = not defined here; Aib = CC(C)(N)C(=O)O

B1: CONS[GLA^15, S7H^2,6,13] (peptide)
peptide: PXLDEXREKLNEXLXALKQKLK
modifications: not fully specified; N-terminal acetyl (Ac-Pro); S7H at 2, 6 and 13; Gla at 15
B2: R5H [K9-E13]R5H OPEN (peptide)
peptide: Ac-PVLDEFRE[R5H]LNE[R5H]LEALKQKLK
modifications: reading uncertain
B3: D-CONS[R7H^6] (peptide)
peptide: Ac-[dP][dV][dL][dD][dE][dGly(6-heptenyl)][dR][dE][dK][dL][dN][dE][dE][dL][dE][dA][dL][dK][dQ][dK][dL][dK]
modifications: not fully specified (C-terminus)
B4: D-CONS[S6H^6, R7H^13] (peptide)
peptide: Ac-[dP][dV][dL][dD][dE][S6H][dR][dE][dK][dL][dN][dE][dGly(6-heptenyl)][dL][dE][dA][dL][dK][dQ][dK][dL][dK]
modifications: not fully specified (C-terminus)
B5: D-CONS[R7H^13] (peptide)
peptide: Ac-[dP][dV][dL][dD][dE][dF][dR][dE][dK][dL][dN][dE][dGly(6-heptenyl)][dL][dE][dA][dL][dK][dQ][dK][dL][dK]
B6: CONS[S7H^2,6,13,20, GLA^15] (peptide)
peptide: Ac-P[Ala(5-hexenyl)]LDE[Ala(5-hexenyl)]REKLNE[Ala(5-hexenyl)]L[Gla]ALKQ[Ala(5-hexenyl)]LK
B7: R5H [E13-L17]R5H OPEN (peptide)
peptide: Ac-PVLDEFREKLNE[R5H]LEA[R5H]KQKLK
modifications: reading uncertain
B8: D-CONS[R7H^6,13] (peptide)
peptide: Ac-[dP][dV][dL][dD][dE][dGly(6-heptenyl)][dR][dE][dK][dL][dN][dE][dGly(6-heptenyl)][dL][dE][dA][dL][dK][dQ][dK][dL][dK]
B9: CONS[S7H^6,13]-GC-PEG40 (peptide)
peptide: Ac-PVLDE[Ala(5-hexenyl)]REKLNE[Ala(5-hexenyl)]LEALKQKLKGC(branched mPEG 40 kDa)
B10: CONS[S7H^2,6,13,20] (peptide)
peptide: Ac-P[Ala(5-hexenyl)]LDE[Ala(5-hexenyl)]REKLNE[Ala(5-hexenyl)]LEALKQ[Ala(5-hexenyl)]LK
B11: CONS[S7H^13]2 (peptide)
peptide: Ac-PVLDEFREKLNE[Ala(5-hexenyl)]LEALKQKLKPVLDEFREKLNE[Ala(5-hexenyl)]LEALKQKLK
B12: CONS[S7H^6,13]-GC-OXA12-CHOLESTEROL (peptide)
peptide: Ac-PVLDE[Ala(5-hexenyl)]REKLNE[Ala(5-hexenyl)]LEALKQKLKGC([MA-OXA12-Gly-cholesterol])
modifications: not fully specified; reading uncertain
B13: (CONS[S7H^6,13]-GC)2 (peptide)
peptide: Ac-PVLDE[Ala(5-hexenyl)]REKLNE[Ala(5-hexenyl)]LEALKQKLKGCPVLDE[Ala(5-hexenyl)]REKLNE[Ala(5-hexenyl)]LEALKQKLKGC
modifications: disulfide 24-48; also: homodimer of two 24-residue chains listed as one 48-residue chain, second N-terminal acetyl not placed
B14: D-CONS[S7H^6,13] (peptide)
peptide: Ac-[dP][dV][dL][dD][dE][Ala(5-hexenyl)][dR][dE][dK][dL][dN][dE][Ala(5-hexenyl)][dL][dE][dA][dL][dK][dQ][dK][dL][dK]
modifications: not fully specified (C-terminus)

Each molecule was assayed against ATP-binding cassette transporter A1 (ABCA1) (mouse, UniProt P41233 1-2261) (assay: cell-based or functional assay). Conditions: not given.
Chain of ATP-binding cassette transporter A1 (ABCA1) (P41233 whole entry): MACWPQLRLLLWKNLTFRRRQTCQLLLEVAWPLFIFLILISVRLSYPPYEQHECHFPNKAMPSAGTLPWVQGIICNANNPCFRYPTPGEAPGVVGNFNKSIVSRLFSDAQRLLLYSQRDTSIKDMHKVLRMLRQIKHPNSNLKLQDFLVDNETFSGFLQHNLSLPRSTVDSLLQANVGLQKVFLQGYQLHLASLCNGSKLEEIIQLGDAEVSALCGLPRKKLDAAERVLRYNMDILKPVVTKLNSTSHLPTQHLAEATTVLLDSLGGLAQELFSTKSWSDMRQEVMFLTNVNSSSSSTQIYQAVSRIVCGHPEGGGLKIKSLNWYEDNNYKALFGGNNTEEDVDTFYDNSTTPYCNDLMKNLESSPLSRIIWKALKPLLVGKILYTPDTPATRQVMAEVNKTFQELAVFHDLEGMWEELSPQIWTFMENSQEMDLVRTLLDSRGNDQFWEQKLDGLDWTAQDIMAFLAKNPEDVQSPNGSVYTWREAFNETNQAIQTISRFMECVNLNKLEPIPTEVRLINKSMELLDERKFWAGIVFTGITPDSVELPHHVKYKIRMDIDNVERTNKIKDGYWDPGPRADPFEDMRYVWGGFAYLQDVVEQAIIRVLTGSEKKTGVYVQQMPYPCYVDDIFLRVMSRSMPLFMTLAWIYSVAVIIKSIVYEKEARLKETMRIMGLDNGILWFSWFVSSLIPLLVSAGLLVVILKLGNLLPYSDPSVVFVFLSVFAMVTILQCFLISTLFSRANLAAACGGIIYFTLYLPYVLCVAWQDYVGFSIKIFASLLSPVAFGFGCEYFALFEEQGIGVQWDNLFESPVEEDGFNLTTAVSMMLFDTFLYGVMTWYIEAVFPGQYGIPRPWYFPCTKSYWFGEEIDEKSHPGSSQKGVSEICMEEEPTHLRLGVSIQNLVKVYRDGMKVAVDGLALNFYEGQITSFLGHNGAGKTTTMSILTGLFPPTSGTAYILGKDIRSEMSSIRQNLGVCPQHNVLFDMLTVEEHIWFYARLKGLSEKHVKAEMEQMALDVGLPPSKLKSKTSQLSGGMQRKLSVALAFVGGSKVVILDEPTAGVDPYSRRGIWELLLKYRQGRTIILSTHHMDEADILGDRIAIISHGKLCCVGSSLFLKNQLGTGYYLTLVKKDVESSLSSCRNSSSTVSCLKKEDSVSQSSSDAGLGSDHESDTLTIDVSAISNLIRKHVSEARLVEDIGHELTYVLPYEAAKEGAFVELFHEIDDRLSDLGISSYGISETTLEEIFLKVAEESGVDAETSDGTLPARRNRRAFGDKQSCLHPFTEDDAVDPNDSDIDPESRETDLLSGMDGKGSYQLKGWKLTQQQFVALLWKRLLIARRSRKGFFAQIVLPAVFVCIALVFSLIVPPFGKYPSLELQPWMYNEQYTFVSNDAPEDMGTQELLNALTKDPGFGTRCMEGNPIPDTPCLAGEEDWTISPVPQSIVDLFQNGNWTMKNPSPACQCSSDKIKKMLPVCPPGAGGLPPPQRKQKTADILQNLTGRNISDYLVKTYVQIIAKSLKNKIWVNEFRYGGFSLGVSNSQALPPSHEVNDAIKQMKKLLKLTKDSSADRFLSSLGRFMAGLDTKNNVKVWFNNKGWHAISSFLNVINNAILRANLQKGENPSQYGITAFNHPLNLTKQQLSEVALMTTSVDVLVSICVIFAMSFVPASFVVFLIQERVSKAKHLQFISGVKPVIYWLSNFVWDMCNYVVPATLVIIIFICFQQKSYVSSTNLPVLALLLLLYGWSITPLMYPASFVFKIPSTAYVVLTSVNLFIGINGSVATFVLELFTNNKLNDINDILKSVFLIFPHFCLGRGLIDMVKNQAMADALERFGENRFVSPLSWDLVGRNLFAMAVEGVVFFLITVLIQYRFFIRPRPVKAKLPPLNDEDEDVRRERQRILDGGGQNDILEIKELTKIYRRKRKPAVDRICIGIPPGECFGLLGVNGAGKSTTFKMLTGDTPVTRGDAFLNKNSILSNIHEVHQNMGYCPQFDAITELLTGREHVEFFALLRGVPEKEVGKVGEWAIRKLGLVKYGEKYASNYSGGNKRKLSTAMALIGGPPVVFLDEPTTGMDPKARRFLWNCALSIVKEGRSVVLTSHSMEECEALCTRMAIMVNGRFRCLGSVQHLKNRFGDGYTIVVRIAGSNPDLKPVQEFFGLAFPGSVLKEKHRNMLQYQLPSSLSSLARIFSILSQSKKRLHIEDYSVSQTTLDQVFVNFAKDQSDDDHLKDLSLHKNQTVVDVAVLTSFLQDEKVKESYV

Molecule | ABCA1-dependent cholesterol efflux EC50 [nM] | ABCA1-dependent cholesterol efflux, % at 100 uM [%] | ABCA1-dependent cholesterol efflux, % at 30 uM [%]
B1 | 600 | – | –
B2 | 46000 | – | –
B3 | – | 19 | –
B4 | 1200 | – | –
B5 | 1100 | – | –
B6 | 2400 | – | –
B7 | – | – | < 3
B8 | – | 17.7 | –
B9 | – | 1 | –
B10 | 2000 | – | –
B11 | 41000 | – | –
B12 | – | – | 1.9
B13 | 1500 | – | –
B14 | 3000 | – | –

Each molecule was assayed against T1, ABCA1 cholesterol transporter protein (Mus musculus, UniProt P41233) (assay: ABCA1-dependent cholesterol efflux from RAW mouse macrophage cells (in vitro RCT assay)). Conditions: AT 30 µM / @ 30.
T1 construct: endogenous in cells
Assay type: cell-based
Description: Peptides of the present invention were designed based on amphipathic properties and their abilities to solubilize phospholipids and promote cholesterol efflux. The most direct functional measurement of efficacy for the ApoA-1 peptide mimetic is its capacity to improve the efflux of cholesterol from the cell. The RAW and J774 cell lines are reliable mouse macrophage cell lines frequently used in the art for this purpose. […] The RAW cell line is preferred and recited in the description below.
In the present assay, the RAW cells are plated at 1.5×10^5 cells/200 μl/well/48-well plate in DMEM complete medium (with 10% FBS from INVITROGEN and 1% penicillin-streptomycin-glutamine from GIBCO) and ^3H-cholesterol at 5 μCi/ml. After 24 hours incubation in a moist 37° C. atmosphere with 5% CO2, the spent medium is removed, the cells are washed once with serum-free DMEM (0.1% fatty acid free bovine serum albumin replaces the FBS), and fresh serum-free medium (200 μl) is added to each well. After overnight incubation in the serum-free medium to allow the cellular cholesterol pools to equilibrate, the spent medium is removed, and fresh serum-free medium is added with/without CPT-cAMP (150 μM final). Eight-point serial titrations of the peptide/s being tested are added at this time (duplicate titrations in plain medium without cAMP and duplicate titrations in medium containing cAMP).
After 24 hours incubation in the various conditions, the medium is harvested from each well and 50 μl aliquots are counted. The cells are then lysed by adding 500 μl of HEPES/Triton lysis buffer to each well. The lysis is facilitated by freezing and thawing once. After thawing, the lysates are mixed well and 50 μl aliquots are counted.
The percent efflux of each peptide in each medium condition (±cAMP) is calculated by dividing the total counts in the medium by the sum of the total counts in the medium and lysate. The percent efflux seen with plain medium is subtracted from the percent efflux seen with the cAMP-stimulated efflux to yield the reported ABCA1-stimulated values. EC50 values are determined using PRISM software (Table 2).

T1 sequence (P41233 whole entry): as above

Molecule | ABCA1-DEPENDENT CHOLESTEROL EFFLUX, % at one concentration [% AT 30 UM]
11 (Ac-PVLDEFREKLNE[R5H]LEA[R5H]KQKLK; staple 13-17; reading uncertain) [compound 11] | <2

Same assay, conditions: AT 100 µM / @ 100

Molecule | ABCA1-DEPENDENT CHOLESTEROL EFFLUX, % at one concentration
6 (Ac-PVLDEFREKLNE[Aib]LEALKQKLK; not fully specified (C-terminus)) [compound 6] | 6% AT 100 UM
22 (Ac-PVLDEFREKLNEELEALKQXLK; not fully specified (residue 20, C-terminus); printed as PVLDEFREKLNEELEALKQR7HLK) [compound 22] | 1.4% @ 100

Same assay, conditions: AT 150 µM

Molecule | ABCA1-DEPENDENT CHOLESTEROL EFFLUX, % at one concentration [% AT 150 UM]
7 (Ac-PVLDEFREKLNE[Aib]LE[Aib]LKQKLK; not fully specified (C-terminus)) [compound 7] | 5

Same assay, conditions: read-out: EC50 in the cholesterol efflux assay (RCT in vitro assay)

Molecule | EC50 [nM]
CCCCCCCCCCCCC(NC(=O)[C@H](CCC(=O)O)NC(=O)[C@H](CC(=O)O)NC(=O)[C@H](CC(C)C)NC(=O)[C@@H](NC(=O)[C@@H]1CCCN1C(C)=O)C(C)C)C(=O)N[C@@H](CCCNC(=N)N)C(=O)N[C@@H](CCC(=O)O)C(=O)N[C@@H](CCCCN)C(=O)N[C@@H](CC(C)C)C(=O)N[C@@H](CC(N)=O)C(=O)N[C@@H](CCC(=O)O)C(=O)N[C@@H](CCC(=O)O)C(=O)N[C@@H](CC(C)C)C(=O)N[C@@H](CCC(=O)O)C(=O)N[C@@H](C)C(=O)N[C@@H](CC(C)C)C(=O)N[C@@H](CCCCN)C(=O)N[C@@H](CCC(N)=O)C(=O)N[C@@H](CCCCN)C(=O)N[C@@H](CC(C)C)C(=O)N[C@@H](CCCCN)C(N)=O (single isomer, unassigned) [SEQ ID NO 37, PVLDE-(RS)12H3-REKLNEELEALKQKLK] | 100 to 400
CCCCCCCCCCCCC(NC(=O)[C@H](CCC(=O)O)NC(=O)[C@H](CC(N)=O)NC(=O)[C@H](CC(C)C)NC(=O)[C@H](CCCCN)NC(=O)[C@H](CCC(=O)O)NC(=O)[C@H](CCCNC(=N)N)NC(=O)[C@H](Cc1ccccc1)NC(=O)[C@H](CCC(=O)O)NC(=O)[C@H](CC(=O)O)NC(=O)[C@H](CC(C)C)NC(=O)[C@@H](NC(=O)[C@@H]1CCCN1C(C)=O)C(C)C)C(=O)N[C@@H](CC(C)C)C(=O)N[C@@H](CCC(=O)O)C(=O)N[C@@H](C)C(=O)N[C@@H](CC(C)C)C(=O)N[C@@H](CCCCN)C(=O)N[C@@H](CCC(N)=O)C(=O)N[C@@H](CCCCN)C(=O)N[C@@H](CC(C)C)C(=O)N[C@@H](CCCCN)C(N)=O (single isomer, unassigned) [SEQ ID NO 38, PVLDEFREKLNE-(RS)12H3-LEALKQKLK] | 200 to 400
CC(=O)N1CCC[C@H]1C(=O)N[C@H](C(=O)N[C@@H](CC(C)C)C(=O)N[C@@H](CC(=O)O)C(=O)N[C@@H](CCC(=O)O)C(=O)N[C@@H](Cc1ccccc1)C(=O)N[C@@H](CCCNC(=N)N)C(=O)N[C@@H](CCC(=O)O)C(=O)N[C@@H](CCCCN)C(=O)N[C@@H](CC(C)C)C(=O)N[C@@H](CC(N)=O)C(=O)N[C@@H](CCC(=O)O)C(=O)NC(C)(C)C(=O)N[C@@H](CC(C)C)C(=O)N[C@@H](CC(C(=O)O)C(=O)O)C(=O)N[C@@H](C)C(=O)N[C@@H](CC(C)C)C(=O)N[C@@H](CCCCN)C(=O)N[C@@H](CCC(N)=O)C(=O)N[C@@H](CCCCN)C(=O)N[C@@H](CC(C)C)C(=O)N[C@@H](CCCCN)C(N)=O)C(C)C [SEQ ID NO 4, PVLDEFREKLNEAIBLGLAALKQKLK] (Ac-PVLDEFREKLNE[Aib]L[Gla]ALKQKLK-NH2; C-terminus assumed) | 41000
C=CCCCCC[C@H](NC(=O)[C@H](CCC(=O)O)NC(=O)[C@H](CC(N)=O)NC(=O)[C@H](CC(C)C)NC(=O)[C@H](CCCCN)NC(=O)[C@H](CCC(=O)O)NC(=O)[C@H](CCCN=C(N)N)NC(=O)[C@@H](CCCCC=C)NC(=O)[C@H](CCC(=O)O)NC(=O)[C@H](CC(=O)O)NC(=O)[C@H](CC(C)C)NC(=O)[C@@H](NC(=O)[C@@H]1CCCN1C(C)=O)C(C)C)C(=O)N[C@@H](CC(C)C)C(=O)N[C@@H](CCC(=O)O)C(=O)N[C@@H](C)C(=O)N[C@@H](CC(C)C)C(=O)N[C@@H](CCCCN)C(=O)N[C@@H](CCC(N)=O)C(=O)N[C@@H](CCCCN)C(=O)N[C@@H](CC(C)C)C(=O)N[C@@H](CCCCN)C(N)=O [SEQ ID NO 13, PVLDER6HREKLNES7HLEALKQKLK] (Ac-PVLDE[dNle(6-vinyl)]REKLNE[Ala(5-hexenyl)]LEALKQKLK-NH2) | 400
